In PMC7201828, “Comparison of Inhibitor and Substrate Selectivity between Rodent and Human Vascular Adhesion Protein-1” (Mediators of Inflammation, 2020):

Tests used:
Assay in all cases: purified protein, by the assay type
[1] = substrate: NCCc1ccc(O)cc1; settings: pH 7.4, 37.0 °C
Description: (§1) The enzymatic activity of recombinant VAP-1 and inhibitor potency was determined using a variation of the fluorometric assay for measuring hydrogen peroxide formation [22]. Briefly, the assay measures the H2O2 generated during the oxidative deamination of an amine substrate (BA for inhibition purposes) by converting Amplex® Red to the fluorescent product, resorufin, via horseradish peroxidase (HRP). […] Stock solutions of Amplex Red (1 mM), HRP (10 U/mL), the substrates (200 μM BA for inhibition), and inhibitor were prepared in reaction buffer and added to the appropriate wells, that the final concentration in each well was 0.05 mM Amplex Red, 0.5 U/mL HRP, and 50 μM BA (saturating condition) in a total reaction volume of 0.1 mL.
(§2) Standard curves were prepared for each plate by serially diluting H2O2 in reaction buffer with equivalent concentrations of Amplex Red and HRP. A 10 μM solution of resorufin was prepared in reaction buffer and was dispensed in duplicate as the positive control for maximum fluorescence. Plates were incubated for 30 minutes at 37°C, protected from light under foil to minimize the resorufin artifactually formed when Amplex Red is exposed to light [28]. The plate was read at 530/35 emission and 590/35 excitation. The mean fluorescence of the background was subtracted from the mean fluorescence of the inhibitor concentration in the presence of BA. The percent control was calculated using equation (1). […] (1) %control=average fluorescence with inhibitor−background/average fluorescence of reaction without inhibitor−background×100, (2) %inhibition=100−%control.
(§3) Both substrates were incubated with recombinant VAP-1 in triplicate on three separate plates.

[2] = substrate: NCc1ccccc1; settings: pH 7.4, 37.0 °C
Description: as §1, §2, §3

[3] = substrate: NCCc1ccccc1; settings: other: recombinant human VAP-1, substrate; pH 7.4; 37.0 °C
Description: as §1, §2, §3

[4] = other: recombinant human VAP-1, substrate
[5] = other: recombinant rat VAP-1, substrate
[6] = other: recombinant mouse VAP-1, substrate

B1: recombinant human VAP-1 (Homo sapiens) (protein)
chain: GRGGDGGEPSQLPHCPSVSPSAQPWTHPGQSQLFADLSREELTAVMRFLTQRLGPGLVDAAQARPSDNCVFSVELQLPPKAAALAHLDRGSPPPAREALAIVFFGRQPQPNVSELVVGPLPHPSYMRDVTVERHGGPLPYHRRPVLFQEYLDIDQMIFNRELPQASGLLHHCCFYKHRGRNLVTMTTAPRGLQSGDRATWFGLYYNISGAGFFLHHVGLELLVNHKALDPARWTIQKVFYQGRYYDSLAQLEAQFEAGLVNVVLIPDNGTGGSWSLKSPVPPGPAPPLQFYPQGPRFSVQGSRVASSLWTFSFGLGAFSGPRIFDVRFQGERLVYEISLQEALAIYGGNSPAAMTTRYVDGGFGMGKYTTPLTRGVDCPYLATYVDWHFLLESQAPKTIRDAFCVFEQNQGLPLRRHHSDLYSHYFGGLAETVLVVRSMSTLLNYDYVWDTVFHPSGAIEIRFYATGYISSAFLFGATGKYGNQVSEHTLGTVHTHSAHFKVDLDVAGLENWVWAEDMVFVPMAVPWSPEHQLQRLQVTRKLLEMEEQAAFLVGSATPRYLYLASNHSNKWGHPRGYRIQMLSFAGEPLPQNSSMARGFSWERYQLAVTQRKEEEPSSSSVFNQNDPWAPTVDFSDFINNETIAGKDLVAWVTAGFLHIPHAEDIPNTVTVGNGVGFFLRPYNFFDEDPSFYSADSIYFRGDQDAGACEVNPLACLPQAAACAPDLPAFSHGGFSHN
Question: For B1, which Km [1, 4] is on record?
Answer: 299 µM

Question: And the Vmax [1, 4]?
Answer: 0.40 μmoles/min/mg prot

Question: And the Km [2, 4]?
Answer: 45.3 ± 50.7 µM

Question: What about the Vmax [2, 4] of the same protein?
Answer: 11.2 µmol/min/mg

Question: What about the Km [3] of the same protein?
Answer: 5510 ± 5510 µM

Question: And the Vmax [3]?
Answer: 7.15 µmol/min/mg

B2: recombinant rat VAP-1 (Rattus norvegicus) (protein)
chain: RSGDGGRLSQPLHCPSVLPSVQPQTHPGQSQPFADLSPEELTAVMSFLIKHLGPGLVDAAQARPSDNCVFSVELQLPAKAAALAHLDRGGPPPVREALAIIFFGGQPKPNVSELVVGPLPHPSYMRDVTVERHGGPLPYYRRPVLTREYQDIQEMIFHRELPQASGLLHHCCFYKRQGHNLLKMTTAPRGLQSGDRATWFGIYYNLSGAGFYPHPIGLELLVDHKALDPALWTIQKVFYQGRYYESLTQLEDMFEAGLVNVVLVPDNGTGGSWSLKSSVPPGRAPPLQFHPEGPRFSVQGSQVRSSLWAFSFGLGAFSGPRIFDIRFQGERVAYEISVQEAIALYGGNSPASMSTCYMDGSFGIGKYSTPLTRGVDCPYLATYVDWHFLLESQTPKTLRDAFCVFEQNQGLPLRRHHSDFYSHYFGGVVETVLVVRSVATLLNYDYVWDMVFHSNGAIEVKFHATGYITSAFFFGAGEKFGNRVAEHTLGTVHTHNAHFKVDLDVAGLKNWAWAEDLAFVPMNVPWQPEFQMQRLQVTRKLLETEEEAAFPLGNATPRYLYLASNHSNKWGHRRGYRIQILSFAGKPLPQESPIEKAFTWGRYHLAVTQRKEEEPSSSSIYNQNDPWTPTVDFTDFISNETIAGEDLVAWVTAGFLHIPHAEDIPNTVTVGNGVGFFLRPYNFFDEDPSFYSPDSIYFRKDQDVTDCEVNSLACLSQTANCVPDLPAFSHGGFTYK
Question: For B2, which Km [1, 5] is on record?
Answer: 8.31 µM

Question: And the Vmax [1, 5]?
Answer: 1.19 μmoles/min/mg prot

Question: What about the Km [2, 5] of the same protein?
Answer: 4.38 ± 0.361 µM

Question: What about the Vmax [2, 5] of the same protein?
Answer: 20.2 µmol/min/mg

B3: recombinant mouse VAP-1 (Mus musculus) (protein)
chain: RSGDGGGLSQPLHCPSVLPSVQPRTHPSQSQPFADLSPEELTAVMSFLTKHLGPGLVDAAQARPSDNCVFSVELQLPAKAAALAHLDRGGPPPVREALAIIFFGGQPKPNVSELVVGPLPHPSYMRDVTVERHGGPLPYYRRPVLDREYQDIEEMIFHRELPQASGLLHHCCFYKHQGQNLLTMTTAPRGLQSGDRATWFGLYYNLSGAGFYPHPIGLELLIDHKALDPALWTIQKVFYQGRYYESLTQLEDQFEAGLVNVVLVPNNGTGGSWSLKSSVPPGPAPPLQFHPQGPRFSVQGSQVSSSLWAFSFGLGAFSGPRIFDIRFQGERVAYEISVQEAIALYGGNSPASMSTCYVDGSFGIGKYSTPLIRGVDCPYLATYVDWHFLLESQAPKTLRDAFCVFEQNQGLPLRRHHSDFYSHYFGGVVGTVLVVRSVSTLLNYDYIWDMVFHPNGAIEVKFHATGYISSAFFFGAGEKFGNRVGAHTLGTVHTHSAHFKVDLDVAGLKNWAWAEDMAFVPTIVPWQPEYQMQRLQVTRKLLETEEEAAFPLGGATPRYLYLASNHSNKWGHRRGYRIQILSFAGKPLPQESPIEKAFTWGRYHLAVTQRKEEEPSSSSIFNQNDPWTPTVNFTDFISNETIAGEDLVAWVTAGFLHIPHAEDIPNTVTAGNSVGFFLRPYNFFDEDPSFHSADSIYFREGQDATACEVNPLACLSQTATCAPEIPAFSHGGFAYRDN
Question: For B3, which Km [2, 6] is on record?
Answer: 13.1 ± 11.4 µM

Question: What about the Vmax [2, 6] of the same protein?
Answer: 20.1 µmol/min/mg
